Values joined by “and” are separate entries in the source; they are usually repeats but may differ in a detail not shown here. Equal entries are not always repeated. Where no end group is shown, it is not given here.
Target: human GLP-1 receptor (human, UniProt P43220 24-463)
Assay: cell-based or functional assay
Details: not given

Molecule	GLP-1 receptor activation relative to Val^8-GLP-1 (7-37) OH
HVEGTFTSDVSSYLEGQAAKEFIAWLKNGRG-OH [Val^8-Lys^33-Asn^34-GLP-1 (7-37) OH]	0.2 relative to Val^8-GLP-1 (7-37) OH
HVEGTFTSDVSSYLEKQAAKEFIEWLVKGRG-OH [Val^8-Lys^22-Glu^30-GLP-1 (7-37) OH]	0.8 relative to Val^8-GLP-1 (7-37) OH
HVEGTFTSDVSSYLEGQAAKEFIAWLVKGGP-NH2 [Val^8-Gly^36-Pro^37-GLP-1 (7-37) NH2]	1.2 relative to Val^8-GLP-1 (7-37) OH
HVEGTFTSDLSSYLEGQAAEEFIAWLVKGRG-OH [Val^8-Leu^16-Glu^26-GLP-1 (7-37) OH]	0.5 relative to Val^8-GLP-1 (7-37) OH
HVEGTFTSDVSSYLEKEAAKEFIAWLVKGRG-OH [Val^8-Lys^22-Glu^23-GLP-1 (7-37) OH]	0.8 relative to Val^8-GLP-1 (7-37) OH
HVEGTFTSDVSSYLEGQAAKEFIAWLKVGRG-OH [Val^8-Lys^33-Val^34-GLP-1 (7-37) OH]	0.2 relative to Val^8-GLP-1 (7-37) OH
HVEGTFTSDVSSYLEGQAAKEFIAWLVGKRG-OH [Val^8-Gly^34-Lys^35-GLP-1 (7-37) OH]	0.7 relative to Val^8-GLP-1 (7-37) OH
HVEGTFTSDVSSYLEEKAAKEFIAWLVKGRG-OH [Val^8-Glu^22-Lys^23-GLP-1 (7-37) OH]	3.1 relative to Val^8-GLP-1 (7-37) OH

Target: T1, human GLP-1 receptor (Homo sapiens, UniProt P43220)
T1 construct: expressed in transfected cells; host or cells: HEK-293 Aurora CRE-BLAM cells
T1 sequence (P43220 24-463): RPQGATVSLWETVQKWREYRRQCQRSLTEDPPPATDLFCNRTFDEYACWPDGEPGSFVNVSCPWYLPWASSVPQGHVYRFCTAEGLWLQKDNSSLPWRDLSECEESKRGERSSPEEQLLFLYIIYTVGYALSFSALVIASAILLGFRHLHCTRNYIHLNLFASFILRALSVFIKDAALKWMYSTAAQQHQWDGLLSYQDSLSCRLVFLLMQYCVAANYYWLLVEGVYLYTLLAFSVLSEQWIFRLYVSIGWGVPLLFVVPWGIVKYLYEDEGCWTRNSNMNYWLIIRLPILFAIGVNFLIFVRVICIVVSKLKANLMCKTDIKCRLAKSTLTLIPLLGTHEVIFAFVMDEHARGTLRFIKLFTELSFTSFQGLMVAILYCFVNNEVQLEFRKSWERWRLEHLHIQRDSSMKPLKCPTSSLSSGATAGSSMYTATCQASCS
Assay: In vitro potency assay (GLP-1 receptor signaling, CRE-BLAM reporter)
Type: cell-based
Details: HEK-293 Aurora CRE-BLAM cells expressing the human GLP-1 receptor; EC50-based potency relative to Val^8-GLP-1 (7-37)OH (=1.0); several values in a cell are repeat determinations
Source text: The extent of the induction of cAMP levels can then be measured using a cAMP response element which drives the expression of a reporter gene such as luciferase or beta lactamase.
These HEK-293 cells have stably integrated a DNA vector having a cAMP response element (CRE) driving expression of the β-lactamase (BLAM) gene. […] The assay is further described in Zlokarnik, et al. (1998) Science 279:84-88 (See also Example 3).
The day after seeding, the medium is replaced with plasma free medium.

Molecule	GLP-1 receptor activation relative to Val^8-GLP-1 (7-37) OH
Val^8-Glu^30-GLP-1 (7-37) OH (HVEGTFTSDVSSYLEGQAAKEFIEWLVKGRG)	0.6 and 0.7
Val^8-Tyr^18-Glu^22-GLP-1 (7-37) OH (HVEGTFTSDVSYYLEEQAAKEFIAWLVKGRG)	5.1 and 5.9
Val^8-Glu^22-Val^25-GLP-1 (7-37) OH (HVEGTFTSDVSSYLEEQAVKEFIAWLVKGRG)	4.7 and 2.9
Val^8-Lys^33-Asn^34-GLP-1 (7-37) OH	0.2
Val^8-Tyr^16-GLP-1 (7-37) OH (HVEGTFTSDYSSYLEGQAAKEFIAWLVKGRG)	2.6 and 2.5
Val^8-His^37-GLP-1 (7-37) OH (HVEGTFTSDVSSYLEGQAAKEFIAWLVKGRH)	0.7 and 1.2
Val^8-Trp^16-Glu^22-GLP-1 (7-37) OH (HVEGTFTSDWSSYLEEQAAKEFIAWLVKGRG)	4.9 and 4.6
Val^8-Glu^22-Val^25-Ile^33-GLP-1 (7-37) OH (HVEGTFTSDVSSYLEEQAVKEFIAWLIKGRG)	4.9 and 5.8 and 6.7
Val^8-Tyr^12-GLP-1 (7-37) OH (HVEGTYTSDVSSYLEGQAAKEFIAWLVKGRG)	1.7 and 1.8
Val^8-Glu^22-Ile^33-GLP-1 (7-37) OH (HVEGTFTSDVSSYLEEQAAKEFIAWLIKGRG)	4.7 and 3.8 and 3.4
Val^8-Tyr^16-Glu^22-GLP-1 (7-37) OH (HVEGTFTSDYSSYLEEQAAKEFIAWLVKGRG)	3.6 and 3.8

Same assay, conditions: in vitro potency relative to Val^8-GLP-1 (7-37)OH

Molecule	potency higher than Val^8-GLP-1 (7-37)OH
Val^8-Glu^22-GLP-1 (7-37) OH (HVEGTFTSDVSSYLEEQAAKEFIAWLVKGRG)	approximately 3 fold
Exendin-4 [reference compound]	approximately 5 fold

Source: US20040235726A1, “Glucagon-like peptides (glp-1) and treatment of respiratory distress” (priority 2001, published 2004)
